Source: publication PMC4650826
Several values for one entry are separate records, joined by “and”; a condition that tells them apart may be missing. Identical values can stand only once.

Columns and labels:
[1] = target: Hcp1 (hemolysin-coregulated protein 1) of Burkholderia pseudomallei, recombinant wildtype (B. pseudomallei); assay: AUC
[2] = target: Hcp1 (hemolysin-coregulated protein 1) of Burkholderia pseudomallei, recombinant wildtype (B. pseudomallei); assay: dynamic light scattering; 8 mg/mL; apparent molecular weight in solution

Hcp1 (hemolysin-coregulated protein 1) of Burkholderia pseudomallei, recombinant wildtype (natural protein)
stoichiometry N [1]: 6 and 12 | stoichiometry N [2]: 12
